Test results published in patent publication US20120315267A1 (GlaxoSmithKline, published 2012).

Legend:
Assay in all cases: cell-based or functional assay
human NAP2 = molecular target: T1, human NAP2 (human, UniProt P02775 59-128)
T1 sequence (looked up): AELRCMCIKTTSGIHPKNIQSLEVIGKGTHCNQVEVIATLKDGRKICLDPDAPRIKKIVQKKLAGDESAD

human Gro-beta = molecular target: T2, human Gro-beta (human, UniProt P19875 35-107)
T2 sequence (looked up): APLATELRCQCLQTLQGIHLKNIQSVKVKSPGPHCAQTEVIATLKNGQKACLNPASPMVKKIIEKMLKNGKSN

human GCP-2 = molecular target: T3, human GCP-2 (human, UniProt P80162 38-114, limits assumed)
T3 sequence (looked up): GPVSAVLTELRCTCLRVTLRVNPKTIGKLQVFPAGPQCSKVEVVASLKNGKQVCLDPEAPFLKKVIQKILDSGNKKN

human ENA-78 = molecular target: T4, human ENA-78 (human, UniProt P42830 37-114, limits assumed)
T4 sequence (looked up): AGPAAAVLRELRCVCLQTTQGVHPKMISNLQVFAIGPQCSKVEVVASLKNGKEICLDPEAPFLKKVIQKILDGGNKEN

human Gro-alpha = molecular target: T5, human Gro-alpha (human, UniProt P09341 35-107)
T5 sequence (looked up): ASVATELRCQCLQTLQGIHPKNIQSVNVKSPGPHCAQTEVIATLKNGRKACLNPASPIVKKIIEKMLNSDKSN

human IL-8 = molecular target: T6, human IL-8 (human, UniProt P10145 28-99, limits assumed)
T6 sequence (looked up): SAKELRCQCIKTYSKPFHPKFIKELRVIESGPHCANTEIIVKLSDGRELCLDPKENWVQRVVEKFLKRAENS

human Gro-gamma = molecular target: T7, human Gro-gamma (human, UniProt P19876 35-107)
T7 sequence (looked up): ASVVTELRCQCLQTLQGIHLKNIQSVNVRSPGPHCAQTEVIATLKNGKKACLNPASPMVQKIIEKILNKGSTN

Binder | FLIPR IC50 (human NAP2) [µg/mL] | FLIPR IC50 (human Gro-beta) [µg/mL] | FLIPR IC50 (human GCP-2) [µg/mL] | FLIPR IC50 (human ENA-78) [µg/mL] | FLIPR IC50 (human Gro-alpha) [µg/mL] | FLIPR IC50 (human IL-8) [µg/mL] | FLIPR IC50 (human Gro-gamma) [µg/mL]
5D2.2D10 (antibody, V domains shown) VH: QIQLVQSGPELKKPGETVKISCKASGYIFTAYGMSWVKQAPGKGLKWMGWINTYSGVPTYADHFKGRFDFSLETSASTAYLQINNLKNEDTATYFCARPTVVDPWYFDVWGTGTTVTVSS VL: DIQMTQSPASLSVSVGETVTITCRASENIYSNLAWYQQKQGKSPQLLVYAATNLGDGVPSRFSGSGSGTQYSLKINSLQSEDFGSYYCQHFWTTPWTFGGGTKLEIK | > 200 | 77.4 | > 200 | 4.7 | > 200 | > 200 | > 200
1A1.4C6 (antibody, IgG1, V domains shown) VH: EVQLQQSGPELVKPGASVKISCKASGYTFIDYYMNWVKQSQGKSLEWIGDVNPDDGDTTYNQQFKDKATLTVDKSSSTAYMELRSLTSEDSAVYYCARDDRTSGYFDVWGTGTTVTVSS VL: DIQMTQSTSSLSASLGDRVTISCRASQDIRNYLNWFQQKPDGTVKLLIYYTSIVHSRVPSRFSGSGSGTDYSLTINNLDQEDIATYFCQQANTLPWTFGGGTKLETK | 123 | > 168 | 11.2 | 12.3 | 2.4 | > 200 | 19.2
7A12.1F10 (antibody, IgG1, V domains shown) VH: QVQLQQSGAELVKPGASVKLSCKASGYIFTSNDINWVRQRPEQGLEWIGWIFPGDNSTKFNEKFRDKATLTTDKSSSTAYMQLSGLTSEDSAVYFCATFYGSTYGYYFDYWGQGTTLTVSS VL: DIVMTQSHKFMSTSVGDRVSITCKASQDVGTAVAWYQQKPGQSPKLLIYWTDTRHTGVPDRFTGSGSGTDFTLTISNVESEDCVDYFCHQYNNYPLTFGAGTKLELK | > 200 | > 200 | 124 | 2.4 | 9.9 | > 200 | > 200
9D12.1H4 (antibody, IgG1, V domains shown) VH: EVQLQQSGPELVKPGASVRMSCKASGNTVIDYNIHWVKQSQGKSLEWIGYINPNSGGTGYNEKFKDKATLTINKSSSTAHMDLRSLTSEDSAVYYCTRFDFWGQGTTLTVSS VL: DVLMTQTPLSLPVSLGDQASISCRSTQSIVPVNGNTHLEWYLHKPGQSPKLLIYKVSNRFSGVPDRFSGSGSGTDFTLKISRVEAEDLGVYYCFQASHVPWTFGGGTKLEIK | > 67 | > 67 | 6.6 | 14.4 | > 67 | 3.4 | > 67
2B12.1E1 (antibody, IgG2c, V domains shown) VH: EVQLQQSGPELVKPGASVKISCKASGYTFTDYYMNWVKQSHGKSLEWIGDINPNNGNTNYNQKFKGKATLTVDKSSSTAYMEFRSLTSEDSAVYYCAGLGRIFDYWGQGTTLTVSS VL: ENVLTQSPAIMSASPGEKVTMTCRASSSVSSTFLHWYQQKSGASPKLWIYSTSDLASGVPARFSGSGSGTSYSLTISSVEAEDAATYYCQQYSGYPWTFGGGTKLEIK | > 67 | > 65.5 | 40.9 | > 67 | > 67 | 1.6 | > 67
17D1.1D2 (antibody, IgG2c, V domains shown) VH: EVQLQQSGPELVKPGASVKISCKASGYTFTDYYMNWLRQSHGKSLEWIGDINPNNGGTNYNQKFKNKATLTVDKSSSTAYMELRSLTSEDSAVFYCAGLGRIFDYWGQGTTLTVSS VL: ENVLTQSPAIMSAFPGEKVTMTCRASSSVSSTYLHWYQQKSGASPKLWIYSTSDLASGVPARFSGSGSGTSYSLTISSVEAEDAATYYCQQFSGYPWTFGGGTKLEIK | > 200 | 81.6 | > 200 | > 200 | > 146 | 2.5 | 144
1L132.23 (antibody, IgG1, V domains shown) VH: QVQLQQPGAELVKPGASVKVSCKASGYTFTNYWMHWVRQRPGQGLEWIGRIHPSDNDTNYNQKFKDKATLTVDKSSNTAYMQLSSLTSEDSAVYYCAIGVYDGFIGLWGQGTSVTVSS VL: DIQMTQSPASQSASLGESVTITCLASQTIGTWLAWYQQKPGKSPQLLIYAATRLADGVPSRFSGSGSGTKFSFKISSLQAEDFVSYYCQQLSSTPWTFGGGTKLEIK | > 67 | 0.69 | > 67 | > 67 | > 67 | > 67 | > 67
1L351.17 (antibody, IgG2b, V domains shown) VH: QAYLQQSGAELVRPGASVKMSCKASGYTFTSYNMHWVKQTPRQGLEWIGAIYPGNGDTSYNQKFKGKATLTVDKSSSTAYMQLSSLTSEDSAVYFCARDLYYFDYWGQGTTLTVSS VL: ENVLTQSPAIMSAFPGEKVTMTCRASSSVSSTYLHWYQQKSGASPKLWIYSTSDLASGVPARFSGSGSGTSYSLTISSVEAEDAATYYCQQFSGYPWTFGGGTKLEIK | > 67 | 1.02 | > 67 | > 67 | 1.92 | > 67 | 3.17
2X352.3 (antibody, IgG1, V domains shown) VH: QIQLVQSGPELKKPGETVKISCKASGYTLTYYGIHWVTQTPGKGLNWMGWINTNTGEPTYVEEFKGRFAFSLETSASTAYLQITDLKNEDTATYFCAKATYDGYSDYWGQGTTLTVSS VL: DIQMTQSPASLSVSVGESVTITCRASENIYSNLAWYQQKQGKSPQLLVYDATNLAHGVPSRFSGSGSGTQFSLRINSLQSEDFGSYYCQHFWGTPLTFGAGTRLELK | > 67 | 1.12 | > 67 | 4.99 | 2.06 | > 67 | 7.43
2X810.3 (antibody, IgG1, V domains shown) VH: QIQLQQSGPEVVKPGASVKISCKASGYIFTDNYIDWVQQRPGQGLEWIGWIFPGSGNTKYNEKFKGKATLTVDTFSSTAYMQLSSLTSEDTAVYFCAREIDYDYDGFFDVWGAGTTVTVSS VL: DIVMTPSHTFMSTSVGDRVIITSKASQDVGSAVAWYQQKPGQSPTLLIYWASTRHTGVPDRFTGSGSGTDFTLTISNLQSEDLADYFCQQYSTYPLTFGAGTKLELK | > 67 | > 67 | 24.6 | 14.6 | > 67 | > 67 | > 67
2X907.15 (antibody, IgG1, V domains shown) VH: EVKLVESGGGLVKPGGSLKLSCAASGFTFSDYYMYWVRQSPEKRLEWVATVSDVGSYTYYSGSVRGRFTISRDNAKNNLYLQMSSLQSEDTAIYYCSRDRTLDYWGQGTSVIVTS VL: QIVLTQSPAIMSASPGEKVTITCNASSSVSYMHWFQQKPGTSPKLWIYSTSNLASGVPARFSGSGSGTSYSLTISRMEAEDAATYYCHQRSSFPPTFGGGTKLEIK | > 67 | > 67 | > 67 | 2.6 | > 67 | > 67 | > 67
